By Kd is commonly meant a measure of binding affinity in units of concentration.

Data set [1] relates to immunoglobulin G (IgG), pooled. Description: SPR. The note with it: 5' thiol (immobilized on gold); SPR imaging, aptamer immobilized on gold chip; IgG 250 nM; ka 3.69E5, kd 7.56E-3.
Data set [2] concerns the target human serum albumin (HSA) (Homo sapiens, UniProt P02768 P02768:25-609). Description: SPR; counter-target; 250 nM HSA; aptamer described as selected to bind IgG and not HSA; curve only in figure. Here is the method:
These sequences were synthesized with a 5′ thiol and immobilized onto a gold surface in triplicate spots at a concentration of 5 uM in a volume of 10 nL. A negative aptamer of the same length not selected for binding to serum albumin was also spotted on the gold chips in the same manner. These were allowed to dry, and the remainder of the surface was blocked with thiolylated polyethylene glycol with an average molecular weight of 5 kda. The gold chips were then inserted on top of a glass prism in a Horiba Openplex Surface Plasmon Resonance imaging instrument (SPRi). Human serum albumin at two concentrations (100 nM and 250 nM) was injected over the chip at a volume of 200 uL and a flow rate of 50 uL/min. We also injected a pool of immunoglobulin (IgG) at a concentration of 250 nM at the same volume and flow rates.
Binding analysis for the selected IgG sequences was performed in a manner identical to that described for the HSA sequences.
On the technique in general: Surface plasmon resonance follows binding to a sensor surface in real time, without labels.

Sequence of human serum albumin (HSA) (P02768 25-609, one chain of several): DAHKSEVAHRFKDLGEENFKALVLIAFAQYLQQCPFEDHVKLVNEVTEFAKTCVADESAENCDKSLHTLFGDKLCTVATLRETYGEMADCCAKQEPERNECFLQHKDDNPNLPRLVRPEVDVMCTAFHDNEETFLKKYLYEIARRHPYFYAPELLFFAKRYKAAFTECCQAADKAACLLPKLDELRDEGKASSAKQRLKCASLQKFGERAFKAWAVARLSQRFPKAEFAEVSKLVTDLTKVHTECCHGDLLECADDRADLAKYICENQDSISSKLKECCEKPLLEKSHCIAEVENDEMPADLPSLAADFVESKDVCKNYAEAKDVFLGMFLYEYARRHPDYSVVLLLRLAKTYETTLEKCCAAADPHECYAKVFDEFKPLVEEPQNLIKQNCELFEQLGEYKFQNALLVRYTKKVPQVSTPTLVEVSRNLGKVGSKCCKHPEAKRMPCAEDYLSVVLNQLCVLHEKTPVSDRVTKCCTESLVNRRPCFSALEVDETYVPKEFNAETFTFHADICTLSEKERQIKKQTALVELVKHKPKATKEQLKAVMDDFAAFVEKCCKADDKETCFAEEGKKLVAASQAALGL

“CCAGATACAGACCCGAGGTGAGAATTTCAACCATCGGCGCCAACAAAACATTCTCTCAGATACAGTAGACAGC [fBIgG-2]”: in data set [1], the Kd was determined as 20.5 nM.

B1: fBIgG-2 (ssDNA)
DNA: CCAGATACAGACCCGAGGTGAGAATTTCAACCATCGGCGCCAACAAAACATTCTCTCAGATACAGTAGACAGC
modifications: 5' thiol (immobilized on gold)
B1: the binding result in data set [2] is “no binding”.

The record behind these values is US20250116035, “A METHOD FOR REPRODUCIBLE APTAMER SELECTION USING CLOSED SEQUENCE SOLUTION SPACES” (NEOVENTURES BIOTECHNOLOGY INC., published 2025).
